The values that follow are results of earlier work, collected in patent US20130252257A1, “QUANTIFICATION OF CIRCULATING STEM AND PROGENITOR CELLS AS A MEANS OF ASSESSING EFFICACY OF NATUROPATHIC INTERVENTIONS” (Creative Medical Health, Inc., priority 2011, published 2013).

Where two headings read alike, the source gives them in different places.

Data set [1] relates to endothelial responsiveness.
Another data set concerns circulating EPC. Particulars: in vivo.
Data set [2] deals with endothelial progenitor cells (EPC). The conditions noted are these: in addition to mobilizing HSC.
A further data set concerns large anterior wall AMI. Particulars: 41 patients with large anterior wall AMI.
Another data set has as its system myocardial infarct. Particulars: 114 patients, 56 treated and 58 control.
The test system of data set [3] is ST-elevation myocardial infarction. Particulars: 6 days of G-CSF at 10 μg/kg.

In the case of “growth hormone: growth hormone, used in antiaging medicine; clinically-applicable mobilizer”, the endothelial responsiveness entry in data set [1] (healthy volunteers) and in data set [1] (patients with congestive heart failure) was “improve endothelial responsiveness” each time.
As for `CC(C)c1nc(N(C)S(C)(=O)=O)nc(-c2ccc(F)cc2)c1/C=C/[C@@H](O)C[C@@H](O)CC(=O)O` [Crestor], the “circulating EPC levels” value in the data set with circulating EPC was “increase circulating EPC levels”.

B1: G-CSF: Granulocyte colony stimulating factor, used clinically for mobilization of hematopoietic stem cells (protein, UniProt P09919 31-207, looked up)
Granulocyte …: TPLGPASSLPQSFLLKCLEQVRKIQGDGAALQEKLVSECATYKLCHPEELVLLGHSLGIPWAPLSSCPSQALQLAGCLSQLHSGLFLYQGLLQALEGISPELGPTLDTLQLDVADFATTIWQQMEELGMAPALQPTQGAMPAFASAFQRRAGGVLVASHLQSFLEVSYRVLRHLAQP
For B1, in data set [2], the “mobilization of EPC” value was “stimulates mobilization of EPC”. Also, in the data set on large anterior wall AMI, the “left ventricle ejection fraction (LVEF)” value is on record as “improvement” and the pathological remodeling result is reported as “diminished pathological remodeling”. The “infarct size, left ventricular function, or coronary restenosis” value in the data set on myocardial infarct is on record as “no influence”. Further, in data set [3] (in comparison to controls), the ejection fraction entry is reported as “Statistically significant improvements” and the pathological remodeling result is recorded as “inhibition of pathological remodeling”. For the same molecule, in data set [3] (four months after infarct, versus controls, sustained over a year), the “myocardial wall at the area of infarct” value is “thicker myocardial wall”.
